The text below walks through data of US20080219970.

For the series, the system named is Ir-CPI (Ixodes ricinus Contact Phase Inhibitor), recombinant, without its peptide signal.

factor XIa: the “activation of factor XII into factor XIIa by factor XIa, reconstituted system with purified factors, chromogenic substrate” value is “Ir-CPI inhibits ... the activation of factor XII into factor XIIa by factor XIa” and the “amidolytic activity (chromogenic substrate S-2366), protease preincubated with Ir-CPI at 1:5 molar ratio” value is “The results obtained did not show any effect of Ir-CPI protein on the amidolytic activity of these factors”.

As to kallikrein, the “activation of factor XII into factor XIIa by kallikrein, reconstituted system with purified factors, chromogenic substrate” value is given as “Ir-CPI did not inhibit the activation of factor XII into factor XIIa by kallikrein” and the “amidolytic activity (chromogenic substrate S-2302), protease preincubated with Ir-CPI at 1:5 molar ratio” value was “The results obtained did not show any effect of Ir-CPI protein on the amidolytic activity of these factors”.
